Source: the nanobody polyreactivity screen of Harvey et al. (2022)

Assay: yeast display, Sf9 membrane polyspecificity reagent, FACS + sequencing; frameworks hold sequencing errors
Summary of the method: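 In a synthetic yeast display library (Saccharomyces cerevisiae BJ5465), nanobody expression was induced with galactose for 36–48 hours. FACS gates were set low and high (top ~1%) using anti-HA fluorescence for expression and streptavidin fluorescence for binding of the Sf9 membrane reagent. Each polyreactivity label is drawn from the gate of origin.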

Row | Sequence | polyreactivity (PSR sort gate)
1 | QVQLVESGGGLVQAGGSLRLSCAASGFIFVQNTMGWYRQAPGKERELVAAISRGTGRTYYADSVKGRFTISRDNAKNTVYLQMNSLKPDDTAVYYCNVVYPQRYRSREDDYWGQGTQVTVSS | high polyreactivity
2 | QVQLVESGGGLVQAGGSLRLSCAASGFIFVRYAMGWYRQAPGKERELVASISGRGSSTYYADSVKGRFTISRDNAKNTVYLQMNSLKPEDTAVYYCAADYYRRIGGYPYDYDYWGQGTQVTVSS | high polyreactivity
3 | QVQLVESGGGLVQAGGSLRLSCAASGFIFVRYARGWNRQAPGKERELVASITRSGGSTYYADSVKGRFTISRDNAKNTVYLQMNSLKPEDTAVYYCAASYYRSRGSTYGYWGQGTQVTVSS | high polyreactivity
4 | QVQLVESGGGLVQAGGSLRLSCAASGFIFVYNAMGWYRPAPGKERELVAAIDYGGGSTTYADSVKGRFTISRDNAKNTVYLQMNSLKPEDTAVYYCAAYYRYLDDIYEYEYWGQGTQVTVSS | low polyreactivity
5 | QVQLVESGGGLVQAGGSLRLSCAASGFIFVYNAMGWYRQAPGKEREFVASITWSGGRTYYADSVKGRFTISRDNAKNTVYLQMNSLKPEDTAVYYCATKYPNSQGRRYDYWGQGTQVTVSS | low polyreactivity
6 | QVQLVESGGGLVQAGGSLRLSCAASGFIFVYNSMGWSRPAPGKEREFVASITWSGGRTYYADSVKGRFTISRDNAKNTVYLQMNSLKREVTAVYFCATKYPNSQVRRYDYWGQGTQVTVSS | low polyreactivity
7 | QVQLVESGGGLVQAGGSLRLSCAASGFIFVYYAMGWYRQAPGKERELVAAISGHGGRTYYADSVKGRFTISRDNAKNTVYLQMNSLKPEDTAVYYCAALLYWRGYGYNYWGQGTQVTVSS | high polyreactivity
8 | QVQLVESGGGLVQAGGSLRLSCAASGFIFVYYAMGWYRQAPGKERELVAAISRASSTSYADSVKGRFTISRDNAKNTVYLQMISLKPEDTAVYYCAAVYYGGFSDYDYWGQGTQVTVSS | low polyreactivity
9 | QVQLVESGGGLVQAGGSLRLSCAASGFIFVYYAMGWYRQAPGKERELVAAITWRGGSTNYADSVKGRFTISRDNAKNTVYLQMNSLIPEDTAVYYCAAYSVWGGSYLALDYWGQGSQVTVSS | low polyreactivity
10 | QVQLVESGGGLVQAGGSLRLSCAASGFIFVYYVMGWYRQAPGKERELVAAITQSGGSTYYADSVKGRFTISRDNAKNTVYLQMNSLKPEDTAVYYCAAYRRTTGGGYDYWGQGTQVTVSS | high polyreactivity
11 | QVQLVESGGGLVQAGGSLRLSCAASGFIFVYYVMGWYRQAPGKERELVAAITQSGGSTYYADSVKGRFTISRDNAKYTVYLQMNSLKPEDTAVYYCAAYRRTTGGGYDYWGQGTQVTVSS | high polyreactivity
12 | QVQLVESGGGLVQAGGSLRLSCAASGFIFWANAMGWYRQAPGKERELVAAITWRNGRTYYADSVKGRFTISRDNAKNTVYLQMNSLKPEDTAVYYCAAPGSYARGTGRDYWGQGTQVTVSS | high polyreactivity
13 | QVQLVESGGGLVQAGGSLRLSCAASGFIFWAYAMGWYRLAPGKERELVAAITWNGGSTNYADSVKGRFTISRDNAKNTVYLQMNSLKPEDTAVYYCAVSRSLSFRYPGYYWGQGTQVTVSS | low polyreactivity
14 | QVQLVESGGGLVQAGGSLRLSCAASGFIFWAYDMGWYRQAPGKERELVAGISKRGGTTYYADSVKGRFTISRDNAKNTVYLQMNSLKPEDTAVYYCAVRLYLEMDYWGQGTQVTVSS | high polyreactivity
15 | QVQLVESGGGLVQAGGSLRLSCAASGFIFWDYAMGWYRQAPGKERELVAAISDSGGDTYYADSVKGRFTISRDNSKNTDYLQMNSLKPEDTAVYYCAADVELWVFRGQQYDYWGQGTQVTVSS | low polyreactivity
16 | QVQLVESGGGLVQAGGSLRLSCAASGFIFWENAMGWSRQAPGKERELVAAISKSGTRTYYADSVKGRFTISRDNAKNTVYLQMNSLKPEDTAVYYCAAEGSGYEYYYWGQGTQVTVSS | high polyreactivity
17 | QVQLVESGGGLVQAGGSLRLSCAASGFIFWKNAMGWYRQAPGKERELVAAISWSGGRTYYADSVKGRFTISRDNAKNTVYLQMNSLKPEDTGVYYCDASVGPFPVRGDYWGQGTQVTVSS | low polyreactivity
18 | QVQLVESGGGLVQAGGSLRLSCAASGFIFWKYAKGWYRQAPGKERELVAAISTTGGSTYYADSVKGRFTNSRDNAKNTVYLQMNSLKPEDTAVYYCAAQVGRGYEVYPVYKYGYWGQGTQVTVSS | high polyreactivity
19 | QVQLVESGGGLVQAGGSLRLSCAASGFIFWRNAMGWDRQAPGKDRELVATISRSGGSTYYADSVKGRFTISRDTAKNTVYLQMNSLKPEDTAVYYCATVPWYYWGTHRTLYDYWGQGTQVTVSS | high polyreactivity
20 | QVQLVESGGGLVQAGGSLRLSCAASGFIFWSYAMGWYRQAPGKERELVAAIDLTGGSTYYADSVKGRFTISRDNAKNTVYFQMNSLKPEDTAVYYCNADGDTYAFTNSDSGFDYWGQGTQVTVSS | low polyreactivity
21 | QVQLVESGGGLVQAGGSLRLSCAASGFIFWSYAMGWYRQAPGKERELVAVITSGASTYYADSVKGRFTISRDNAKNTVYLQMNSLKPEDTAVYYSAAEYWVPAWKFGYEYWGQGTQVTVSS | high polyreactivity
22 | QVQLVESGGGLVQAGGSLRLSCAASGFIFWTNTMGWYRQAPGKERELVAAISRSGGSTYYADSVKGRFTISRDNAKNTVYLQMNSLKPEDTAVYYCAKGYRGYSYGYWGQGTQVTVSS | high polyreactivity
23 | QVQLVESGGGLVQAGGSLRLSCAASGFIFWVYALGWYRQAPGKERELVAAITSGGGSTYYADSVKGRFTISRDNAKNSVYLQMNSLKPEDTAVYYCNSVSWEGYDFDYWGQGTQVTVSS | high polyreactivity
24 | QVQLVESGGGLVQAGGSLRLSCAASGFIFWWYAMGWYRQAPGKERELVAGITGSGGTTYYADSVKGRFTISRDNAKNTVYLQMNSLKPEDTAVYYCAARSRSRPKYDYWGQGTQVTVSS | high polyreactivity
25 | QVQLVESGGGLVQAGGSLRLSCAASGFIFWWYAMGWYRQAPGKERELVASISWSGGSTYYADSVKGRFTISRDNAKNTVYLQMNSLKPEDTAVYYCAASRARTIPGPHTNFNYWGQGTQVTVSS | high polyreactivity
26 | QVQLVESGGGLVQAGGSLRLSCAASGFIFWWYAMGWYRQAPGKERELVATITASVGSTNYADSVKGRFTISRDTAKNTVYLQMNSLKPEDTAVYYCATDIIGAIRDWDHTRMDYWGQGTQVTVSS | low polyreactivity
27 | QVQLVESGGGLVQAGGSLRLSCAASGFIFWWYGMGWYRQSPGKEREFVAAITQSGSTYYADSVKGRFTISRDNAKNTVYLQMNSLKPEDTAVYYCAAVVGRRLYPRYDYWGQGTQVTVSS | high polyreactivity
28 | QVQLVESGGGLVQAGGSLRLSCAASGFIFWYYAMGWSRQAPGKERELVAAISGSGGRTYYADSVKGRFTISRDNAKNTVYLQLNSLKPEDTAVYYCNARRAAYYHRARELDYWGEGTQVTVSS | high polyreactivity
29 | QVQLVESGGGLVQAGGSLRLSCAASGFIFWYYAMGWYRQAPGKERELVAAITTSDGSTYYADSVKGRFTISRDNAKNTVYLQMNSLKPEDTAGYYCAADSYYVSYGYYYCGQGTQVTVSS | low polyreactivity
30 | QVQLVESGGGLVQAGGSLRLSCAASGFIFYAYAMGWDRQAPGKERELVAAISRGGGSTYYADSVKGRFTISRDNAKNTVYLQMNSLKPEDTAVYYCAADFYYDRDVDFWGQGTQVTVSS | high polyreactivity
